Measured values from IntAct's records for PubMed 16083881.

B1: Serine/threonine-protein phosphatase 5 (Mus musculus), Q60676 (parent)
chain: MAMAEGERTECAETPRDEPPADGTLKRAEELKTQANDYFKAKDYENAIKFYSQAIELNPGNAIYYGNRSLAYLRTECYGYALGDATRAIELDKKYIKGYYRRAASNMALGKFRAALRDYETVVKVKPNDKDAKMKYQECSKIVKQKAFERAIAGDEHRRSVVDSLDIESMTIEDEYSGPKLEDGKVTITFMKDLMQWYKDQKKLHRKCAYQILVQVKEVLCKLSTLVETTLKETEKITVCGDTHGQFYDLLNIFELNGLPSETNPYIFNGDFVDRGSFSVEVILTLFGFKLLYPDHFHLLRGNHETDNMNQIYGFEGEVKAKYTAQMYELFSEVFEWLPLAQCINGKVLIMHGGLFSEDGVTLDDIRKIERNRQPPDSGPMCDLLWSDPQPQNGRSVSKRGVSCQFGPDVTKAFLEENQLDYIIRSHEVKAEGYEVAHGGRCVTVFSAPNYCDQMGNKASYIHLQGSDLRPQFHQFTAVPHPNVKPMAYANTLLQLGMM
partner: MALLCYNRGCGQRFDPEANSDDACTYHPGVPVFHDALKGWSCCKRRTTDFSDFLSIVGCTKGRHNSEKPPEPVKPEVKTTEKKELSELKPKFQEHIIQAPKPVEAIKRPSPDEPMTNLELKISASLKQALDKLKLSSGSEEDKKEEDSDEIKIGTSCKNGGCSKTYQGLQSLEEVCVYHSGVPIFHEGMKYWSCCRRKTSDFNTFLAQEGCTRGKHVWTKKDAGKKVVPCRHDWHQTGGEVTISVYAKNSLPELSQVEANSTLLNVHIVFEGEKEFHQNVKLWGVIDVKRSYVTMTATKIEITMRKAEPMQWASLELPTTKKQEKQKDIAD

Variants of: B1
Settings: with chrd1_mouse Chordc1, Q9D1P4

| Variant | effect of a mutation on the interaction |
| --- | --- |
| MAMAEGERTECAETPRDEPPADGTLKRAEELATQANDYFKAKDYENAIKFYSQAIELNPGNAIYYGNRSLAYLRTECYGYALGDATRAIELDKKYIKGYYRRAASNMALGKFRAALRDYETVVKVKPNDKDAKMKYQECSKIVKQKAFERAIAGDEHRRSVVDSLDIESMTIEDEYSGPKLEDGKVTITFMKDLMQWYKDQKKLHRKCAYQILVQVKEVLCKLSTLVETTLKETEKITVCGDTHGQFYDLLNIFELNGLPSETNPYIFNGDFVDRGSFSVEVILTLFGFKLLYPDHFHLLRGNHETDNMNQIYGFEGEVKAKYTAQMYELFSEVFEWLPLAQCINGKVLIMHGGLFSEDGVTLDDIRKIERNRQPPDSGPMCDLLWSDPQPQNGRSVSKRGVSCQFGPDVTKAFLEENQLDYIIRSHEVKAEGYEVAHGGRCVTVFSAPNYCDQMGNKASYIHLQGSDLRPQFHQFTAVPHPNVKPMAYANTLLQLGMM [K32A] | disrupting interaction |

Variants of: B1
Settings: with chrd1_mouse Chordc1, Q9D1P4
Remark: another data set of the same source

| Variant | effect of a mutation on the interaction |
| --- | --- |
| MAMAEGERTECAETPRDEPPADGTLKRAEELKTQANDYFKAKDYENAIKFYSQAIELNPGNAIYYGNRSLAYLRTECYGYALGDATRAIELDKKYIKGYYARAASNMALGKFRAALRDYETVVKVKPNDKDAKMKYQECSKIVKQKAFERAIAGDEHRRSVVDSLDIESMTIEDEYSGPKLEDGKVTITFMKDLMQWYKDQKKLHRKCAYQILVQVKEVLCKLSTLVETTLKETEKITVCGDTHGQFYDLLNIFELNGLPSETNPYIFNGDFVDRGSFSVEVILTLFGFKLLYPDHFHLLRGNHETDNMNQIYGFEGEVKAKYTAQMYELFSEVFEWLPLAQCINGKVLIMHGGLFSEDGVTLDDIRKIERNRQPPDSGPMCDLLWSDPQPQNGRSVSKRGVSCQFGPDVTKAFLEENQLDYIIRSHEVKAEGYEVAHGGRCVTVFSAPNYCDQMGNKASYIHLQGSDLRPQFHQFTAVPHPNVKPMAYANTLLQLGMM [R101A] | disrupting interaction |
